In patent publication US20110047631A1, “HEAT SHOCK PROTEIN DEFICIENCIES AS MODEL SYSTEMS FOR BRAIN PATHOLOGY AND CANCER” (Medical College of Georgia Research Institute Inc., priority 2009, published 2011) one finds fold amount of Chip co-immunoprecipitated with tau in aged brain extracts data, which are given here for 1 substance.

This assay deals with tau (total tau), endogenous mouse protein in brain extracts (mouse) (UniProt P10637). Briefly: immunoprecipitation with antibody to total tau, immunoblot for Chip; 8 months old against 6 weeks old mice. For orientation: A western blot detects proteins with antibodies after separation by electrophoresis.
tau (total tau), endogenous mouse protein in brain extracts (mouse), sequence (P10637 other isoform, or with tags, fused parts or gaps limits assumed): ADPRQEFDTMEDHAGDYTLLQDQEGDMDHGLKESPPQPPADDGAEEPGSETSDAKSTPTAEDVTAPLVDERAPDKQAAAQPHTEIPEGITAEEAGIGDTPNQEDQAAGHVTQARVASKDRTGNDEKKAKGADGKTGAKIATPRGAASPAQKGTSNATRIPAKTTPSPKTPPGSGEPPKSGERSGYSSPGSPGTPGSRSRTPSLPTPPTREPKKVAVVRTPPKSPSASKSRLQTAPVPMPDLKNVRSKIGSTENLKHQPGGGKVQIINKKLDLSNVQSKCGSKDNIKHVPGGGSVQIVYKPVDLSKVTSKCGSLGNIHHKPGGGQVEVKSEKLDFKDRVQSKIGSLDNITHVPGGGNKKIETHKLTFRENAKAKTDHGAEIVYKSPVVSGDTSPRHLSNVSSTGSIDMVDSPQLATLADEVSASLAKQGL

In the case of “Chip (C-terminal Hsp70-interacting protein) ubiquitin ligase, endogenous mouse protein in brain extracts (from UniProt Q9WUD1 1-304) (enzyme)”, the fold amount of Chip co-immunoprecipitated with tau in aged brain extracts was 2 fold.
